Assay results as given in the supplement of paper PMC7877785.
± gives the uncertainty stated by the source.

Assay: self-splicing fitness, log relative to wild type (ln ratio); higher = more splicing; Tetrahymena group I intron in knt gene, E. coli kanamycin selection, DiMSum; sequences stand for … in CUCUCU…GGAGGGAAAAGUUAUCAGGCAUGCACCUGGUAGCUAGUCUUUAAACCAAUAGAUUGCAUCGGUUUAAAAGGCAAGACCGUCAAAUUGCGGGAAAGGGGUCAACAGCCGUUCAGUACCAAGUCUCAGGGGAAACUUUGAGAUGGCCUUGCAAAGGGUAUGGUAAUAAGCUGACGGACAUGGUCCUAACCACGCAGCCAAGUCCUAAGUCAACAGAUCUUCUGUUGAUAUGGAUGCAGUUCACAGACUAAAUGUCGGUCGGGGAAGAUGUAUUCUUCUCAUAAGAUAUAGUCGGACCUCUCCUUAAUGGGAGCUAGCGGAUGAAGUGAUGCAACACUGGAGCCGCUGGGAACUAAUUUGUAUGCGAAAGUAUAUUGAUUAGUUUUGGAGUACUCGUGGUCG
Method in brief: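 Colonies from six replicate transformations of E. coli BL21(DE3) were pooled and amplicon-sequenced on an Illumina HiSeq 2500. The library placed an intron with all eight P1ex-region nucleotides randomised inside the knt kanamycin-resistance gene on pET-22b(+), and cells grew overnight at 37°C or 30°C on LB agar with or without 25 μg/mL kanamycin (plus 100 μg/mL carbenicillin, 50 μM IPTG, 0.2% rhamnose). Fitness is the DiMSum error-weighted combination of wild-type-normalised replicate fold changes, kanamycin versus none.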

Sequence	self-splicing fitness (ln) (30 °C)	self-splicing fitness (ln) (37 °C)
CUUCAGCAAUAUUACGAGCG	-0.695 ± 0.058	-0.136 ± 0.085
CUUCAGCAAUAUUACGAGGA	-2.73 ± 0.26	-1.64 ± 0.24
CUUCAGCAAUAUUACGAGUU	-3.14 ± 0.2	-2.03 ± 0.2
CUUCAGCAAUAUUACGAUGC	-2.93 ± 0.21	-2.23 ± 0.23
CUUCAGCAAUAUUACGAUUC	-2.88 ± 0.21	-1.85 ± 0.16
CUUCAGCAAUAUUACGCAAC	-2.86 ± 0.21	–
CUUCAGCAAUAUUACGCACA	-2.37 ± 0.24	–
CUUCAGCAAUAUUACGCCAC	-2.72 ± 0.5	–
CUUCAGCAAUAUUACGCCUC	–	-3.49 ± 0.32
CUUCAGCAAUAUUACGCUUA	-3.34 ± 0.2	-2.4 ± 0.17
CUUCAGCAAUAUUACGGACG	-0.00287 ± 0.06	-0.541 ± 0.073
CUUCAGCAAUAUUACGUACG	-0.327 ± 0.062	0.542 ± 0.088
CUUCAGCAAUAUUACGUAGA	-3.3 ± 0.19	-2.92 ± 0.27
CUUCAGCAAUAUUACGUAGC	-3.62 ± 0.16	-2.95 ± 0.25
CUUCAGCAAUAUUACGUCAA	-1.25 ± 0.34	–
CUUGAGCAAUAUUACGAAAU	-2.7 ± 0.2	-3.68 ± 0.46
CUUGAGCAAUAUUACGACCA	-1.41 ± 0.32	–
CUUGAGCAAUAUUACGAGAA	-2.73 ± 0.4	–
CUUGAGCAAUAUUACGAUAU	–	-1.76 ± 0.39
CUUGAGCAAUAUUACGAUCG	-1.2 ± 0.16	-0.798 ± 0.23
CUUGAGCAAUAUUACGAUUA	-3.25 ± 0.26	-2.36 ± 0.35
CUUGAGCAAUAUUACGAUUU	–	-2.09 ± 0.39
CUUGAGCAAUAUUACGCAGA	-1.11 ± 0.26	-1.91 ± 0.3
CUUGAGCAAUAUUACGCCCU	–	-2.21 ± 0.46
CUUGAGCAAUAUUACGCCUG	–	-1.13 ± 0.36
CUUGAGCAAUAUUACGCUAC	-2.82 ± 0.49	-2.02 ± 0.45
CUUGAGCAAUAUUACGCUUC	-2.91 ± 0.28	-1.96 ± 0.45

Sequence	self-splicing fitness (ln) (30 °C)	self-splicing fitness (ln) (37 °C)
CUUGAGCAAUAUUACGCUUU	-2.88 ± 0.32	-3.35 ± 0.31
CUUGAGCAAUAUUACGGAAC	-2.25 ± 0.2	-2.61 ± 0.33
CUUGAGCAAUAUUACGGACG	-0.339 ± 0.15	0.256 ± 0.26
CUUGAGCAAUAUUACGGCCG	–	-0.18 ± 0.27
CUUGAGCAAUAUUACGGCGU	-3.95 ± 0.34	-2.76 ± 0.26
CUUGAGCAAUAUUACGGGGG	-2.81 ± 0.2	-3.25 ± 0.39
CUUGAGCAAUAUUACGGUUC	-3.56 ± 0.35	-2.51 ± 0.36
CUUGAGCAAUAUUACGUGAA	-3.07 ± 0.2	-2.36 ± 0.3
CUUGAGCAAUAUUACGUGUC	-2.02 ± 0.22	-2.28 ± 0.26
CUUUAGCAAUAUUACGAAUU	–	-3.6 ± 0.46
CUUUAGCAAUAUUACGACAG	-0.431 ± 0.071	-0.339 ± 0.097
CUUUAGCAAUAUUACGACGG	-0.354 ± 0.13	-0.827 ± 0.16
CUUUAGCAAUAUUACGAGAC	-1.83 ± 0.36	-2.9 ± 0.4
CUUUAGCAAUAUUACGAGGU	-3.4 ± 0.23	-2.3 ± 0.27
CUUUAGCAAUAUUACGAUAG	-0.991 ± 0.11	-0.782 ± 0.14
CUUUAGCAAUAUUACGAUUG	-0.504 ± 0.12	0.118 ± 0.17
CUUUAGCAAUAUUACGCAUU	-4.72 ± 0.31	-3.51 ± 0.23
CUUUAGCAAUAUUACGCCAG	-1.65 ± 0.28	-0.616 ± 0.28
CUUUAGCAAUAUUACGCGGC	-2.41 ± 0.35	-0.897 ± 0.17
CUUUAGCAAUAUUACGGAUU	–	-1.57 ± 0.41
CUUUAGCAAUAUUACGGGAC	-3.25 ± 0.36	-2.36 ± 0.42
CUUUAGCAAUAUUACGGUAA	-2.37 ± 0.23	-2.12 ± 0.26
CUUUAGCAAUAUUACGGUAG	-1.81 ± 0.085	-0.685 ± 0.11
CUUUAGCAAUAUUACGUACC	–	-1.68 ± 0.3
CUUUAGCAAUAUUACGUAGG	-1.05 ± 0.094	-0.65 ± 0.13
CUUUAGCAAUAUUACGUAUC	-3.56 ± 0.35	-3.21 ± 0.4
